The results in this text go back to the supplement of paper PMC11246515.

± gives the standard deviation of the averaged measurements.

A short description of this data set: total protein half-life in vivo (active degradation + dilution); higher = more stable protein.
Setting [1] is: E. coli NCM3722 delta-clpP delta-lon delta-hslV, growth: N-lim chemostat, doubling time 6 h.
The mark [2] stands for this setting: E. coli NCM3722 delta-clpP, growth: N-lim chemostat, doubling time 6 h.
[3] abbreviates: E. coli NCM3722 delta-hslV, growth: N-lim chemostat, doubling time 6 h.
[4] abbreviates: E. coli NCM3722 delta-lon, growth: N-lim chemostat, doubling time 6 h.
Where [5] appears, read: E. coli NCM3722 delta-smpB, growth: N-lim chemostat, doubling time 6 h.
The mark [6] stands for this setting: wild type E. coli NCM3722, growth: C-lim chemostat, doubling time 3 h.
Setting [7] is: wild type E. coli NCM3722, growth: C-lim chemostat, doubling time 6 h.
[8] abbreviates: wild type E. coli NCM3722, growth: C-lim chemostat, doubling time 12 h.
[9] abbreviates: wild type E. coli NCM3722, growth: N-lim chemostat, doubling time 6 h.
[10] abbreviates: wild type E. coli NCM3722, growth: N-lim chemostat, doubling time 12 h.
[11] abbreviates: wild type E. coli NCM3722, growth: P-lim chemostat, doubling time 6 h.
Where [12] appears, read: wild type E. coli NCM3722, growth: P-lim chemostat, doubling time 12 h.

With “MSDDNSHSSDTISNKKGFFSLLLSQLFHGEPKNRDELLALIRDSGQNDLIDEDTRDMLEGVMDIADQRVRDIMIPRSQMITLKRNQTLDECLDVIIESAHSRFPVISEDKDHIEGILMAKDLLPFMRSDAEAFSMDKVLRQAVVVPESKRVDRMLKEFRSQRYHMAIVIDEFGGVSGLVTIEDILELIVGEIEDEYDEEDDIDFRQLSRHTWTVRALASIEDFNEAFGTHFSDEEVDTIGGLVMQAFGHLPARGETIDIDGYQFKVAMADSRRIIQVHVKIPDDSPQPKLDE [P0AE78]”, the “total protein half-life in vivo” value is, setting by setting: under setting [1], 5.6 ± 0.81 h; under setting [2], 4.83 ± 0.09 h; under setting [3], 5.25 ± 0.99 h; under setting [4], 5.54 ± 0.81 h; under setting [5], 4.73 ± 0.13 h; under setting [6], 2.91 ± 0.18 h. Also, the “total protein half-life in vivo” value under setting [7] amounted to 5.83 ± 0.67 h; the “total protein half-life in vivo” value under setting [8] was 10 ± 0.62 h; the “total protein half-life in vivo” value under setting [9] amounted to 4.6 ± 0.091 h; the “total protein half-life in vivo” value under setting [10] worked out at 8.26 ± 0.13 h; the “total protein half-life in vivo” value under setting [11] came out at 5.28 ± 0.17 h; the “total protein half-life in vivo” value under setting [12] is 9.77 ± 1.1 h.

As for “MEKLRVGIVFGGKSAEHEVSLQSAKNIVDAIDKSRFDVVLLGIDKQGQWHVSDASNYLLNADDPAHIALRPSATSLAQVPGKHEHQLIDAQNGQPLPTVDVIFPIVHGTLGEDGSLQGMLRVANLPFVGSDVLASAACMDKDVTKRLLRDAGLNIAPFITLTRANRHNISFAEVESKLGLPLFVKPANQGSSVGVSKVTSEEQYAIAVDLAFEFDHKVIVEQGIKGREIECAVLGNDNPQASTCGEIVLTSDFYAYDTKYIDEDGAKVVVPAAIAPEINDKIRAIAVQAYQTLGCAGMARVDVFLTPENEVVINEINTLPGFTNISMYPKLWQASGLGYTDLITRLIELALERHAADNALKTTM [P0A6J8]”, the “total protein half-life in vivo” value was 4.83 ± 0.18 h under setting [1]; 5.65 ± 1.4 h under setting [2]; 4.95 ± 0.063 h under setting [3]; 6.41 ± 1.5 h under setting [4]; 4.9 ± 0.21 h under setting [5]; 2.99 ± 0.12 h under setting [6]. In addition, the “total protein half-life in vivo” value under setting [8] came out at 10.5 ± 0.68 h; the “total protein half-life in vivo” value under setting [9] stood at 4.89 ± 0.086 h; the “total protein half-life in vivo” value under setting [10] was 8.61 ± 0.1 h; the “total protein half-life in vivo” value under setting [11] is 5.56 ± 0.49 h; the “total protein half-life in vivo” value under setting [12] was found to be 11.5 ± 0.22 h.

With “MILTDPEWQAVLLSLKVSSLAVLFSLPFGIFFAWLLVRCTFPGKALLDSVLHLPLVLPPVVVGYLLLVSMGRRGFIGERLYDWFGITFAFSWRGAVLAAAVMSFPLMVRAIRLALEGVDVKLEQAARTLGAGRWRVFFTITLPLTLPGIIVGTVLAFARSLGEFGATITFVSNIPGETRTIPSAMYTLIQTPGGESGAARLCIISIALAMISLLISEWLARISRERAGR [P0AF01]”, the “total protein half-life in vivo” value under setting [1] was determined as 4.97 h; the “total protein half-life in vivo” value under setting [2] amounted to 6.15 h; the “total protein half-life in vivo” value under setting [6] amounted to 3.03 h; the “total protein half-life in vivo” value under setting [7] came out at 4.97 h; the “total protein half-life in vivo” value under setting [8] worked out at 9.85 h; the “total protein half-life in vivo” value under setting [9] is 5.21 h. In addition, the “total protein half-life in vivo” value under setting [10] is 9.16 h.

In the case of “MNDAIPRPQAKTRKALTPLLEIRNLTKSYDGQHAVDDVSLTIYKGEIFALLGASGCGKSTLLRMLAGFEQPSAGQIMLDGVDLSQVPPYLRPINMMFQSYALFPHMTVEQNIAFGLKQDKLPKAEIASRVNEMLGLVHMQEFAKRKPHQLSGGQRQRVALARSLAKRPKLLLLDEPMGALDKKLRDRMQLEVVDILERVGVTCVMVTHDQEEAMTMAGRIAIMNRGKFVQIGEPEEIYEHPTTRYSAEFIGSVNVFEGVLKERQEDGLVLDSPGLVHPLKVDADASVVDNVPVHVALRPEKIMLCEEPPANGCNFAVGEVIHIAYLGDLSVYHVRLKSGQMISAQLQNAHRHRKGLPTWGDEVRLCWEVDSCVVLTV”, the “total protein half-life in vivo” value reads like this: under setting [1], 6.49 ± 0.28 h; under setting [2], 6.64 ± 0.65 h; under setting [3], 5.74 ± 0.33 h; under setting [4], 6.22 ± 0.67 h; under setting [5], 5.84 ± 0.35 h; under setting [6], 2.93 ± 0.054 h. Also, the “total protein half-life in vivo” value worked out at 5.92 ± 0.21 h under setting [7]; 11.2 ± 0.37 h under setting [8]; 5.64 ± 0.26 h under setting [9]; 11.5 ± 0.22 h under setting [10]; 6.222 ± 0.037 h under setting [11]; 11.8 ± 1.3 h under setting [12].

Consider “MSQKLKVVTIGGGSSYTPELLEGFIKRYHELPVSELWLVDVEGGKPKLDIIFDLCQRMIDNAGVPMKLYKTLDRREALKDADFVTTQLRVGQLPARELDERIPLSHGYLGQETNGAGGLFKGLRTIPVIFDIVKDVEELCPNAWVINFTNPAGMVTEAVYRHTGFKRFIGVCNIPIGMKMFIRDVLMLKDSDDLSIDLFGLNHMVFIKDVLINGKSRFAELLDGVASGQLKASSVKNIFDLPFSEGLIRSLNLLPCSYLLYYFKQKEMLAIEMGEYYKGGARAQVVQKVEKQLFELYKNPELKVKPKELEQRGGAYYSDAACEVINAIYNDKQAEHYVNIPHHGQIDNIPADWAVEMTCKLGRDGATPHPRITHFDDKVMGLIHTIKGFEIAASNAALSGEFNDVLLALNLSPLVHSDRDAELLAREMILAHEKWLPNFADCIAELKKAH”, for which the “total protein half-life in vivo” value under setting [1] came to 6.05 ± 1.9 h; the “total protein half-life in vivo” value under setting [2] was found to be 7.38 h; the “total protein half-life in vivo” value under setting [3] is over 8 h; the “total protein half-life in vivo” value under setting [5] was found to be 3.97 ± 0.054 h; the “total protein half-life in vivo” value under setting [6] worked out at 2.84 ± 0.34 h; the “total protein half-life in vivo” value under setting [7] worked out at 6.45 ± 1.8 h. The “total protein half-life in vivo” value is 9.95 ± 0.38 h under setting [8]; 4.52 h under setting [9]; 8.23 ± 0.59 h under setting [10]; 6.29 ± 0.62 h under setting [11]; 11 ± 1.1 h under setting [12].

With “MPLLDIRNLTIEFKTGDEWVKAVDRVSMTLTEGEIRGLVGESGSGKSLIAKAICGVNKDNWRVTADRMRFDDIDLLRLSARERRKLVGHNVSMIFQEPQSCLDPSERVGRQLMQNIPAWTYKGRWWQRFGWRKRRAIELLHRVGIKDHKDAMRSFPYELTEGECQKVMIAIALANQPRLLIADEPTNSMEPTTQAQIFRLLTRLNQNSNTTILLISHDLQMLSQWADKINVLYCGQTVETAPSKELVTMPHHPYTQALIRAIPDFGSAMPHKSRLNTLPGAIPLLEQLPIGCRLGPRCPYAQRECIVTPRLTGAKNHLYACHFPLNMEKE [P0AAH4]”, the “total protein half-life in vivo” value under setting [1] came out at 6.47 ± 1 h; the “total protein half-life in vivo” value under setting [2] stood at 5.65 ± 0.24 h; the “total protein half-life in vivo” value under setting [3] amounted to 5.68 ± 0.59 h; the “total protein half-life in vivo” value under setting [4] worked out at 5.96 ± 0.44 h; the “total protein half-life in vivo” value under setting [5] is 5.11 ± 0.24 h; the “total protein half-life in vivo” value under setting [6] was 2.86 ± 0.12 h. Further, the “total protein half-life in vivo” value runs as follows: under setting [7], 5.52 ± 0.2 h; under setting [8], 11.19 ± 0.067 h; under setting [9], 5.58 ± 0.23 h; under setting [10], 10.5 ± 0.24 h; under setting [11], 5.43 ± 0.13 h; under setting [12], 10.9 ± 0.29 h.

In the case of “MKRRLIIAASLFVFNLSSGFAAENIPFSPQPPEIHAGSWVLMDYTTGQILTAGNEHQQRNPASLTKLMTGYVVDRAIDSHRITPDDIVTVGRDAWAKDNPVFVGSSLMFLKEGDRVSVRDLSRGLIVDSGNDACVALADYIAGGQRQFVEMMNNYAEKLHLKDTHFETVHGLDAPGQHSSAYDLAVLSRAIIHGEPEFYHMYSEKSLTWNGITQQNRNGLLWDKTMNVDGLKTGHTSGAGFNLIASAVDGQRRLIAVVMGADSAKGREEEARKLLRWGQQNFTTVQILHRGKKVGTERIWYGDKENIDLGTEQEFWMVLPKAEIPHIKAKYTLDGKELTAPISAHQRVGEIELYDRDKQVAHWPLVTLESVGEGSMFSRLSDYFHHKA”, the “total protein half-life in vivo” value under setting [9] is 7.4 h.

Consider “MSTTIEKIQRQIAENPILLYMKGSPKLPSCGFSAQAVQALAACGERFAYVDILQNPDIRAELPKYANWPTFPQLWVDGELVGGCDIVIEMYQRGELQQLIKETAAKYKSEEPDAE [P0AC69]”, for which the “total protein half-life in vivo” value turned out to be 6.29 h under setting [1]; 5.76 ± 1.2 h under setting [2]; 3.71 ± 0.071 h under setting [3]; 4.31 ± 0.19 h under setting [4]; 3.43 ± 0.19 h under setting [5]; 2.37 ± 0.19 h under setting [6]. Further, the “total protein half-life in vivo” value stood at 5.03 ± 0.74 h under setting [7]; 6.84 ± 0.26 h under setting [8]; 3.25 ± 0.33 h under setting [9]; 5.45 ± 0.99 h under setting [10]; 4.67 ± 1.3 h under setting [11]; 11.4 ± 3.8 h under setting [12].

Consider “MTPVKVWQERVEIPTYETGPQDIHPMFLENRVYQGSSGAVYPYGVTDTLSEQKTLKSWQAVWLENDYIKVMILPELGGRVHRAWDKVKQRDFVYHNEVIKPALVGLLGPWISGGIEFNWPQHHRPTTFMPVDFTLEAHEDGAQTVWVGETEPMHGLQVMTGFTLRPDRAALEIASRVYNGNATPRHFLWWANPAVKGGEGHQSVFPPDVTAVFDHGKRAVSAFPIATGTYYKVDYSAGVDISRYKNVPVPTSYMAEKSQYDFVGAWCHDEDGGLLHVANHHIAPGKKQWSWGHSEFGQAWDKSLTDNNGPYIELMTGIFADNQPDFTWLDAYEEKRFEQYFLPYHSLGMVQNASRDAVIKLQRSKRGIEWGLYAISPLNGYRLAIREIGKCNALLDDAVALMPATAIQGVLHGINPERLTIELSDADGNIVLSYQEHQPQALPLPDVAKAPLAAQDITSTDEAWFIGQHLEQYHHASRSPFDYYLRGVALDPLDYRCNLALAMLEYNRADFPQAVAYATQALKRAHALNKNPQCGQASLIRASAYERQGQYQQAEEDFWRAVWSGNSKAGGYYGLARLAARNGNFDAGLDFCQQSLRACPTNQEVLCLHNLLLVLSGRQDNARVQREKLLRDYPLNATLWWLNWFDGRSESALAQWRGLCQGRDVNALMTAGQLINWGMPTLAAEMLNALDCQRTLPLYLQASLLPKAERGELVAKAIDVFPQFVRFPNTLEEVAALESIEECWFARHLLACFYYNKRSYNKAIAFWQRCVEMSPEFADGWRGLAIHAWNKQHDYELAARYLDNAYQLAPQDARLLFERDLLDKLSGATPEKRLARLENNLEIALKRDDMTAELLNLWHLTGQADKAADILATRKFHPWEGGEGKVTSQFILNQLLRAWQHLDARQPQQACELLHAALHYPENLSEGRLPGQTDNDIWFWQAICANAQGDETEATRCLRLAATGDRTINIHSYYNDQPVDYLFWQGMALRLLGEQQTAQQLFSEMKQWAQEMAKTSIEADFFAVSQPDLLSLYGDLQQQHKEKCLMVAMLASAGLGEVAQYESARAELTAINPAWPKAALFTTVMPFIFNRVH”, for which the “total protein half-life in vivo” value runs as follows: under setting [6], 3.06 ± 0.34 h; under setting [7], 4.96 ± 0.015 h; under setting [8], 8.56 ± 1.8 h; under setting [12], 7.32 h.

Consider “MSHTIRDKQKLKARASKIQGQVVALKKMLDEPHECAAVLQQIAAIRGAVNGLMREVIKGHLTEHIVHQGDELKREEDLDVVLKVLDSYIK”, for which the “total protein half-life in vivo” value runs as follows: under setting [1], 7.38 ± 0.4 h; under setting [2], 7.02 ± 0.26 h; under setting [4], 6.29 ± 0.15 h; under setting [6], over 4 h; under setting [7], 7.3 ± 0.65 h; under setting [8], 10.8 h. Besides, the “total protein half-life in vivo” value under setting [9] worked out at 5.53 ± 0.39 h, the “total protein half-life in vivo” value under setting [10] amounted to 11.2 h, the “total protein half-life in vivo” value under setting [11] was 4.14 ± 1.8 h and the “total protein half-life in vivo” value under setting [12] was 11.9 ± 0.86 h.
